In US11938104B1, “Compositions and methods for prevention and treatment of coronavirus and related disorders” (Abrexa Pharmaceuticals, Inc., priority 2021, dated 2024):

System: Male SD rats
Assay: Thromboembolic MCAO, J147+tPA expanded study, 72 h (Example 4)
Type: in vivo, rat
Experimental: Objective: To determine whether J147 can prevent tPA-associated brain hemorrhage and extend the treatment time window of tPA in a clinically relevant thromboembolic stroke model in rats. • J147 compound: Stock solution: 60 mg/ml DMSO, in 60 ul/vial, stored at −20° C. • Working solution: 3 mg/ml in 5% DMSO, 70% PEG200 and 25% normal saline, prepared prior to injection. • One vial stock solution was warmed at 37° C. and mixed with 1140 ul sterilized solution (PEG200: saline, 2.8:1). • Recombinant human tPA (Alteplase, 2.2 mg/vial): Reconstituted with 1.1 ml water (2 mg/ml). 10 mg/kg, 10% bonus injection, 90% 30 min. via mini pump.
Methods: Male SD rats (280-300 g) were subjected to thromboembolic middle cerebral artery occlusion (MCAO) and treated with saline at 4 hours, tPA (tissue-type plasminogen activator; 10 mg/kg, IV) at 4 hours, and combined J147 (10 mg/kg, IV) plus tPA at 4 hours after onset of ischemia. Bederson score was examined prior to the sacrifice at 72 h after stroke. Infarct volumes, brain hemorrhage, and animal mortality were measured.
Conclusion: J147 plus tPA combination treatment attenuates tPA-associated hemorrhage and alleviates brain damage after eMCAO. Consequently, the use of J147 in combination with tPA may extend the length of the therapeutic window for administration of tPA following an ischemic event and thereby increase the number of stroke patients that could benefit from use of tPA. • J147 compound: Stock solution: 60 mg/ml DMSO, in 60 ul/vial, stored at −20° C. • Working solution: 3 mg/ml in 5% DMSO, 70% PEG200 and 25% normal saline, prepared prior to injection. One vial stock solution was warmed at 37° C. and mixed with 1140 ul sterilized solution (PEG200: saline, 2.8:1). • Recombinant human tPA (Alteplase, 2.2 mg/vial): Reconstituted with 1.1 ml water (2 mg/ml). 10 mg/kg, 10% bonus injection, 90% 30 min. via mini pump.

[1] = tPA 10 mg/kg IV, J147 10 mg/kg IV, at 4 hours after onset of ischemia, 72 h after stroke

B1: tPA: Recombinant human tPA (Alteplase); tissue plasminogen activator, thrombolytic approved by the FDA for the treatment of stroke (protein, UniProt P00750 36-562, looked up)
Tissue-type plasminogen …: SYQVICRDEKTQMIYQQHQSWLRPVLRSNRVEYCWCNSGRAQCHSVPVKSCSEPRCFNGGTCQQALYFSDFVCQCPEGFAGKCCEIDTRATCYEDQGISYRGTWSTAESGAECTNWNSSALAQKPYSGRRPDAIRLGLGNHNYCRNPDRDSKPWCYVFKAGKYSSEFCSTPACSEGNSDCYFGNGSAYRGTHSLTESGASCLPWNSMILIGKVYTAQNPSAQALGLGKHNYCRNPDGDAKPWCHVLKNRRLTWEYCDVPSCSTCGLRQYSQPQFRIKGGLFADIASHPWQAAIFAKHRRSPGERFLCGGILISSCWILSAAHCFQERFPPHHLTVILGRTYRVVPGEEEQKFEVEKYIVHKEFDDDTYDNDIALLQLKSDSSRCAQESSVVRTVCLPPADLQLPDWTECELSGYGKHEALSPFYSERLKEAHVRLYPSSRCTSQHLLNRTVTDNMLCAGDTRSGGPQANLHDACQGDSGGPLVCLNDGRMTLVGIISWGLGCGQKDVPGVYTKVTNYLDWIRDNMRP
- brain hemorrhage / hemorrhagic transformation [1]: worsened
- brain infarction / infarct volume [1]: did not decrease
- mortality rate (treatment at 4 h after onset of ischemia, log-rank test *p < 0.05 vs Saline or tPA alone group): 32%
- Death (number of rats) (treatment at 4 h after onset of ischemia, tPA n = 22, J147 plus tPA n = 17): 7
